In patent US20240139329A1 (CALIFORNIA INSTITUTE OF TECHNOLOGY, published 2024):

What was measured:
[1] = molecular target: T1, human low-density lipoprotein receptor-related protein 6 (LRP6), on cells (human, UniProt O75581 20-1613); assay: cell microarray screen
T1 construct: also called hLRP6

[2] = molecular target: T2, human interleukin 3 (IL3), expressed on microarray cells (human, UniProt P08700 20-152); assay: cell microarray screen hit (title of Table 4)
T2 construct: also called hIL3
T2 sequence: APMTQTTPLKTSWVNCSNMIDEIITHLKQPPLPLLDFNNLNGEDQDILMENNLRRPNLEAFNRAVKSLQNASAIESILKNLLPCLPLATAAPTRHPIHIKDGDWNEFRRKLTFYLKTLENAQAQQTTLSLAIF

[3] = molecular target: T3, mouse LRP6 extracellular domain (AA20-1366) tagged with 6×His tag (mouse, UniProt O88572 20-1366); assay: pull-down, His-tagged bait on Ni-NTA, AAV prey, Western blot (FIG. 21)
T3 construct: also called full length extracellular domain of mouse LRP6
T3 sequence: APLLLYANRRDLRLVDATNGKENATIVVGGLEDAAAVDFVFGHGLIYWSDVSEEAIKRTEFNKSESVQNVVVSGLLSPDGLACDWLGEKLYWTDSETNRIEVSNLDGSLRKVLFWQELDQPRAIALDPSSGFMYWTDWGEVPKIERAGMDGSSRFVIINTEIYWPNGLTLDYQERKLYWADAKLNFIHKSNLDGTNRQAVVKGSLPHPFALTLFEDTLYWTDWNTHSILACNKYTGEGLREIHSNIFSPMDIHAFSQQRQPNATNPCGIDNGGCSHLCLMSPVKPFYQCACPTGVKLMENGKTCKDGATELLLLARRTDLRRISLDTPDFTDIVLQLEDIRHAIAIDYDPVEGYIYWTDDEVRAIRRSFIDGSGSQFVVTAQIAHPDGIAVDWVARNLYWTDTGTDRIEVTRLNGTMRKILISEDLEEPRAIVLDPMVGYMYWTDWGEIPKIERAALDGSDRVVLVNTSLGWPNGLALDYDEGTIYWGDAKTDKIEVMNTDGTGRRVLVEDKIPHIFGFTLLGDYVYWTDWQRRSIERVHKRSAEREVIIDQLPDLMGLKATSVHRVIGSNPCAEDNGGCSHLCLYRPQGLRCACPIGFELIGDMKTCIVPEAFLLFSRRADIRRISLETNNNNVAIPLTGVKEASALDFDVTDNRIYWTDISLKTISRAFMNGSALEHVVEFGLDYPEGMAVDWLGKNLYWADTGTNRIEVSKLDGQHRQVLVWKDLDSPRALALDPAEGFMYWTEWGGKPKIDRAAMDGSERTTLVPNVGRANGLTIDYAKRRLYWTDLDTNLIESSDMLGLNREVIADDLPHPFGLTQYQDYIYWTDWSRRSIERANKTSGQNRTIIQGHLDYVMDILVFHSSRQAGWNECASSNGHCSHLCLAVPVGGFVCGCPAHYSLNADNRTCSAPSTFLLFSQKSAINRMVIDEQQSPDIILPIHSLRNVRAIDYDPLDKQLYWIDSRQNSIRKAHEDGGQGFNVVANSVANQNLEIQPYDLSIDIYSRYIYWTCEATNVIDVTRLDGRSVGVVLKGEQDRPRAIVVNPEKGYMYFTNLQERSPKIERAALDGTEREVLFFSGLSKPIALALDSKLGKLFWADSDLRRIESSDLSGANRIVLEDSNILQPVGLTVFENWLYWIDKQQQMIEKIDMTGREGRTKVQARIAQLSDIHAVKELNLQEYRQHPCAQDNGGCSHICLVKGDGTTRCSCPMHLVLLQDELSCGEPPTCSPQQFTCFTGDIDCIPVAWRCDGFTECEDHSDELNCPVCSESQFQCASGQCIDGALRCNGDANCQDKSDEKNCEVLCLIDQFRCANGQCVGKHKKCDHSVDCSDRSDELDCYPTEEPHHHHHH

[4] = molecular target: T4, Human Adeno-Associated Virus Receptor (AAVR) PKD2 domain (AA 401-498) tagged with 6×His (human, UniProt Q8IZA0 401-498); assay: as above
T4 construct: range 401-498; also called human AAVR PDK2 domain
T4 sequence: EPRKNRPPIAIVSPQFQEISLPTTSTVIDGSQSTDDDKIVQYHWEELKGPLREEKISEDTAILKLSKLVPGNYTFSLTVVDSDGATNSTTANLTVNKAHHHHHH

[5] = molecular target: T1, human low-density lipoprotein …; assay: cell microarray screen hit (membrane)
Procedure: After these controls, the six-capsid pool was tested in a full screen of approximately 6400 proteins, including 6000 human plasma membrane proteins and secreted and cell surface-tethered proteins, as well as approximately 400 heterodimers. […] To assign these hits to specific capsids, follow-up deconvolution screens were performed with each individual capsid from the pool (FIG. 12E). DNA oligos for the 22 identified hits, as well as the positive control CD86, were affixed in duplicate locations to new slides. A negative control condition with no AAV analyte and a positive control condition with CTLA4-Fc (CD86 binder) were also included.

[6] = molecular target: T5, human GP2 (AA 1-518) triple tagged with Fc-Myc-6×His (human, UniProt P55259 29-518); assay: validated interaction (cell culture potency assay and/or SPR)
T5 construct: also called human GP2-Fc; not shown: Fc and Myc tags
T5 sequence (P55259 29-518): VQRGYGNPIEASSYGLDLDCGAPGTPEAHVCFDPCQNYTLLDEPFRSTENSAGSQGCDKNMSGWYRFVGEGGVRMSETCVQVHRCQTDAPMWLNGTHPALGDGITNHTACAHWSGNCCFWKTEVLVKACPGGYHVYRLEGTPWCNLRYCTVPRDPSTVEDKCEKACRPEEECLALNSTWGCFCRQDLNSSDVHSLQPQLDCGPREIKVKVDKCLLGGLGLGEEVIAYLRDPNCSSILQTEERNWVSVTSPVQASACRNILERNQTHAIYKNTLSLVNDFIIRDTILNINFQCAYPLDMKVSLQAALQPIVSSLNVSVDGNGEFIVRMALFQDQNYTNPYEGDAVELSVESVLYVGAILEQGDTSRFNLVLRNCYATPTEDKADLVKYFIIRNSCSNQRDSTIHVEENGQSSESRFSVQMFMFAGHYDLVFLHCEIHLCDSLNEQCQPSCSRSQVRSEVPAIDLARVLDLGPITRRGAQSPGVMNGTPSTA

Measured: binding result

B1: AAV.CAP-Mac (other)
chain: MAADGYLPDWLEDNLSEGIREWWALKPGAPQPKANQQHQDNARGLVLPGYKYLGPGNGLDKGEPVNAADAAALEHDKAYDQQLKAGDNPYLKYNHADAEFQERLKEDTSFGGNLGRAVFQAKKRLLEPLGLVEEAAKTAPGKKRPVEQSPQEPDSSAGIGKSGAQPAKKRLNFGQTGDTESVPDPQPIGEPPAAPSGVGSLTMASGGGAPVADNNEGADGVGSSSGNWHCDSQWLGDRVITTSTRTWALPTYNNHLYKQISNSTSGGSSNDNAYFGYSTPWGYFDFNRFHCHFSPRDWQRLINNNWGFRPKRLNFKLFNIQVKEVTDNNGVKTIANNLTSTVQVFTDSDYQLPYVLGSAHEGCLPPFPADVFMIPQYGYLTLNDGSQAVGRSSFYCLEYFPSQMLRTGNNFQFSYEFENVPFHSSYAHSQSLDRLMNPLIDQYLYYLSRTINGSGQNQQTLKFSVAGPSNMAVQGRNYIPGPSYRQQRVSTTVTQNNNSEFAWPGASSWALNGRNSLMNPGPAMASHKEGEDRFFPLSGSLIFGKQGTGRDNVDADKVMITNEEEIKTTNPVATESYGQVATNHQSAQLNTTKPIAQAQTGWVQNQGILPGMVWQDRDVYLQGPIWAKIPHTDGNFHPSPLMGGFGMKHPPPQILIKNTPVPADPPTAFNKDKLNSFITQYSTGQVSVEIEWELQKENSKRWNPEIQYTSNYYKSNNVEFAVNTEGVYSEPRPIGTRYLTRNL
notes: also called CAP-C1
binds: [1] | [2] | [3] | [4]

B2: AAV9-X1.1 (other)
chain: MAADGYLPDWLEDNLSEGIREWWALKPGAPQPKANQQHQDNARGLVLPGYKYLGPGNGLDKGEPVNAADAAALEHDKAYDQQLKAGDNPYLKYNHADAEFQERLKEDTSFGGNLGRAVFQAKKRLLEPLGLVEEAAKTAPGKKRPVEQSPQEPDSSAGIGKSGAQPAKKRLNFGQTGDTESVPDPQPIGEPPAAPSGVGSLTMASGGGAPVADNNEGADGVGSSSGNWHCDSQWLGDRVITTSTRTWALPTYNNHLYKQISNSTSGGSSNDNAYFGYSTPWGYFDFNRFHCHFSPRDWQRLINNNWGFRPKRLNFKLFNIQVKEVTDNNGVKTIANNLTSTVQVFTDSDYQLPYVLGSAHEGCLPPFPADVFMIPQYGYLTLNDGSQAVGRSSFYCLEYFPSQMLRTGNNFQFSYEFENVPFHSSYAHSQSLDRLMNPLIDQYLYYLSRTIDGAATKNQTLKFSVAGPSNMAVQGRNYIPGPSYRQQRVSTTVTQNNNSEFAWPGASSWALNGRNSLMNPGPAMASHKEGEDRFFPLSGSLIFGKQGTGRDNVDADKVMITNEEEIKTTNPVATESYGQVATNHQSAQGNNTRSVAQAQTGWVQNQGILPGMVWQDRDVYLQGPIWAKIPHTDGNFHPSPLMGGFGMKHPPPQILIKNTPVPADPPTAFNKDKLNSFITQYSTGQVSVEIEWELQKENSKRWNPEIQYTSNYYKSNNVEFAVNTEGVYSEPRPIGTRYLTRNL
notes: also called AAV-X1.1; X1B10
not listed: [1]
binds: all other assays above
